Measured values taken from publication PMC4500674 (Archives of biochemistry and biophysics, 2015).

Molecular target: T1, human Mia40, wild type, short linker form (human, UniProt Q8N4Q1 1-142)
T1 sequence: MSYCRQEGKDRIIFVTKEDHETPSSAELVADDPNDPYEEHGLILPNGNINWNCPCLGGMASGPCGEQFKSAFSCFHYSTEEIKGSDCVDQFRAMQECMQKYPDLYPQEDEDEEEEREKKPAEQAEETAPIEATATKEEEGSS
Experiment: stopped-flow fluorescence kinetics

Kd: 10.4 ± 0.2 µM
B1: reduced bovine pancreatic ribonuclease A (natural protein, UniProt P61823 27-150, looked up)
chain: KETAAAKFERQHMDSSTSAASSSNYCNQMMKSRNLTKDRCKPVNTFVHESLADVQAVCSQKNVACKNGQTNCYQSYSTMSITDCRETGSSKYPNCAYKTTQANKHIIVACEGNPYVPVHFDASV
